{"source": "IntAct's records for PubMed 20676133", "parents": {"B1": {"name": "RING finger protein 11 (Homo sapiens), Q9Y3C5 (parent)", "chain": "MGNCLKSPTSDDISLLHESQSDRASFGEGTEPDQEPPPPYQEQVPVPVYHPTPSQTRLATQLTEEEQIRIAQRIGLIQHLPKGVYDPGRDGSEKKIRECVICMMDFVYGDPIRFLPCMHIYHLDCIDDWLMRSFTCPSCMEPVDAALLSSYETN"}}}
{"variants_of": "B1", "conditions": "with itch_human ITCH"}
{"variant": "Y40A", "effect of a mutation on the interaction": "disrupting interaction"}
{"variants_of": "B1", "conditions": "with nedd4_human NEDD4, P46934"}
{"variant": "Y40A", "effect of a mutation on the interaction": "disrupting interaction"}
{"variants_of": "B1", "conditions": "with smuf2_human SMURF2, Q9HAU4"}
{"variant": "Y40A", "effect of a mutation on the interaction": "disrupting interaction"}
